{"source": "IntAct's records for PubMed 18625701", "parents": {"B1": {"name": "Brefeldin A-inhibited guanine nucleotide-exchange protein 2 (Homo sapiens), Q9Y6D5 (parent)", "chain": "MQESQTKSMFVSRALEKILADKEVKRPQHSQLRRACQVALDEIKAEIEKQRLGTAAPPKANFIEADKYFLPFELACQSKSPRVVSTSLDCLQKLIAYGHITGNAPDSGAPGKRLIDRIVETICSCFQGPQTDEGVQLQIIKALLTAVTSPHIEIHEGTILQTVRTCYNIYLASKNLINQTTAKATLTQMLNVIFTRMENQVLQEARELEKPIQSKPQSPVIQAAAVSPKFVRLKHSQAQSKPTTPEKTDLTNGEHARSDSGKVSTENGDAPRERGSSLSGTDDGAQEVVKDILEDVVTSAIKEAAEKHGLTEPERVLGELECQECAIPPGVDENSQTNGIADDRQSLSSADNLESDAQGHQVAARFSHVLQKDAFLVFRSLCKLSMKPLGEGPPDPKSHELRSKVVSLQLLLSVLQNAGPVFRTHEMFINAIKQYLCVALSKNGVSSVPDVFELSLAIFLTLLSNFKMHLKMQIEVFFKEIFLNILETSTSSFEHRWMVIQTLTRICADAQCVVDIYVNYDCDLNAANIFERLVNDLSKIAQGRSGHELGMTPLQELSLRKKGLECLVSILKCMVEWSKDLYVNPNHQTSLGQERLTDQEIGDGKGLDMARRCSVTSMESTVSSGTQTTVQDDPEQFEVIKQQKEIIEHGIELFNKKPKRGIQFLQEQGMLGTSVEDIAQFLHQEERLDSTQVGDFLGDSARFNKEVMYAYVDQLDFCEKEFVSALRTFLEGFRLPGEAQKIDRLMEKFAARYIECNQGQTLFASADTAYVLAYSIIMLTTDLHSPQVKNKMTKEQYIKMNRGINDSKDLPEEYLSSIYEEIEGKKIAMKETKELTIATKSTKQNVASEKQRRLLYNLEMEQMAKTAKALMEAVSHAKAPFTSATHLDHVRPMFKLVWTPLLAAYSIGLQNCDDTEVASLCLEGIRCAIRIACIFGMQLERDAYVQALARFSLLTASSSITEMKQKNIDTIKTLITVAHTDGNYLGNSWHEILKCISQLELAQLIGTGVKTRYLSGSGREREGSLKGHTLAGEEFMGLGLGNLVSGGVDKRQMASFQESVGETSSQSVVVAVDRIFTGSTRLDGNAIVDFVRWLCAVSMDELASPHHPRMFSLQKIVEISYYNMNRIRLQWSRIWHVIGDHFNKVGCNPNEDVAIFAVDSLRQLSMKFLEKGELANFRFQKDFLRPFEHIMKKNRSPTIRDMAIRCIAQMVNSQAANIRSGWKNIFAVFHQAASDHDGNIVELAFQTTCHIVTTIFQHHFPAAIDSFQDAVKCLSEFACNAAFPDTSMEAIRLIRFCGKYVSERPRVLQEYTSDDMNVAPGDRVWVRGWFPILFELSCIINRCKLDVRTRGLTVMFEIMKSYGHTFEKHWWQDLFRIVFRIFDNMKLPEQLSEKSEWMTTTCNHALYAICDVFTQFYEALNEVLLSDVFAQLQWCVKQDNEQLARSGTNCLENLVISNGEKFSPEVWDETCNCMLDIFKTTIPHVLLTWRPVGMEEDSSEKHLDVDLDRQSLSSIDKNPSERGQSQLSNPTDDSWKGRPYANQKLFASLLIKCVVQLELIQTIDNIVFYPATSKKEDAEHMVAAQQDTLDADIHIETEDQGMYKYMSSQHLFKLLDCLQESHSFSKAFNSNYEQRTVLWRAGFKGKSKPNLLKQETSSLACCLRILFRMYVDENRRDSWEEIQQRLLTVCSEALAYFITVNSESHREAWTSLLLLLLTKTLKINDEKFKAHASMYYPYLCEIMQFDLIPELRAVLRKFFLRIGVVYKIWIPEEPSQVPAALSPVW"}}}
{"variants_of": "B1", "details": "with kap3_human PRKAR2B"}
{"variant": "V534W", "effect of a mutation on the interaction": "disrupting interaction"}
{"variant": "V289W", "effect of a mutation on the interaction": "disrupting interaction"}
